{
  "source": "patent US7732162",
  "key": {"H-Gln-Ala-OH": {"test_system": "T1, H-Gln-Ala-OH", "T1 sequence": "QA"}, "H-Gln-Glu-OH": {"test_system": "T2, H-Gln-Glu-OH", "T2 sequence": "QE"}, "H-Gln-Glu-Asp-Leu-NH2": {"test_system": "T3, H-Gln-Glu-Asp-Leu-NH2", "T3 sequence": "QEDL"}, "H-Gln-Glu-Ala-Phe-NH2": {"test_system": "T4, H-Gln-Glu-Ala-Phe-NH2", "T4 sequence": "QEAF"}, "H-Gln-Gly-Pro-OH": {"test_system": "T5, H-Gln-Gly-Pro-OH", "T5 sequence": "QGP"}, "H-Gln-Arg-Gly-Ile-NH2": {"test_system": "T6, H-Gln-Arg-Gly-Ile-NH2", "T6 sequence": "QRGI"}, "H-Gln-Ala-NH2": {"test_system": "T7, H-Gln-Ala-NH2", "T7 sequence": "QA"}, "[1]": {"test_system": "T8, H-Gln-Ala-Ala-Ala-Ala-NH2", "T8 sequence": "QAAAA"}, "H-Gln-Tyr-Ala-OH": {"test_system": "T9, H-Gln-Tyr-Ala-OH", "T9 sequence": "QYA"}, "H-Gln-Asn-Gly-Ile-NH2": {"test_system": "T10, H-Gln-Asn-Gly-Ile-NH2", "T10 sequence": "QNGI"}, "H-Gln-Lys-Arg-Leu-NH2": {"test_system": "T11, H-Gln-Lys-Arg-Leu-NH2", "T11 sequence": "QKRL"}, "H-Gln-Gln-OH": {"test_system": "T12, H-Gln-Gln-OH", "T12 sequence": "QQ"}, "H-Gln-Pro-Tyr-Phe-NH2": {"test_system": "T13, H-Gln-Pro-Tyr-Phe-NH2", "T13 sequence": "QPYF"}, "H-Gln-Ser-Tyr-Phe-NH2": {"test_system": "T14, H-Gln-Ser-Tyr-Phe-NH2", "T14 sequence": "QSYF"}, "[2]": {"test_system": "T15, H-βhomoGln-Phe-Lys-Arg-Leu-Ala-NH2", "T15 sequence": "QFKRLA"}, "[Gln^3]-glucagon(3-29)": {"target": "[Gln^3]-glucagon(3-29) (UniProt P01275)", "sequence (P01275 whole entry, looked up, tested part not stated)": "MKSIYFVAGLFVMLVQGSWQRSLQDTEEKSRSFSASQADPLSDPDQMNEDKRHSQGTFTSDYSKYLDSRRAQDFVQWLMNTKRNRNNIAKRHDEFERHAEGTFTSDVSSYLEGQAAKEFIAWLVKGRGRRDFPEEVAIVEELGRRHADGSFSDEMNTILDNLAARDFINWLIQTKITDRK"}, "H-Gln-Glu-Tyr-NH2": {"test_system": "T16, H-Gln-Glu-Tyr-NH2", "T16 sequence": "QEY"}, "H-Gln-Glu-Ala-Ala-NH2": {"test_system": "T17, H-Gln-Glu-Ala-Ala-NH2", "T17 sequence": "QEAA"}, "H-Gln-Arg-Tyr-Phe-NH2": {"test_system": "T18, H-Gln-Arg-Tyr-Phe-NH2", "T18 sequence": "QRYF"}, "[3]": {"test_system": "T19, H-Gln-Ala-Ala-Ser-Ala-Ala-NH2", "T19 sequence": "QAASAA"}, "H-Gln-Gln-Tyr-Phe-NH2": {"test_system": "T20, H-Gln-Gln-Tyr-Phe-NH2", "T20 sequence": "QQYF"}, "[Gln^1]-FPP": {"test_system": "T21, [Gln^1]-FPP", "T21 sequence": "QEP"}, "H-Gln-Ala-Ala-NH2": {"test_system": "T22, H-Gln-Ala-Ala-NH2", "T22 sequence": "QAA"}, "H-Gln-His-Tyr-Phe-NH2": {"test_system": "T23, H-Gln-His-Tyr-Phe-NH2", "T23 sequence": "QHYF"}, "[Gln^1]-GnRH": {"test_system": "T24, [Gln^1]-GnRH", "T24 sequence": "QHWSYGLRPG"}, "H-Gln-Gly-OH": {"test_system": "T25, H-Gln-Gly-OH", "T25 sequence": "QG"}, "[Gln^1]-Gastrin": {"test_system": "T26, [Gln^1]-Gastrin", "T26 sequence": "QGPWLEEEEEAYGWMDF"}, "H-Gln-Glu-Tyr-Ala-NH2": {"test_system": "T27, H-Gln-Glu-Tyr-Ala-NH2", "T27 sequence": "QEYA"}, "[4]": {"test_system": "T28, H-Gln-cyclo(Nε-Lys-Arg-Pro-Ala-Gly-Phe)", "T28 sequence": "QKRPAGF"}, "H-Gln-Trp-Ala-NH2": {"test_system": "T29, H-Gln-Trp-Ala-NH2", "T29 sequence": "QWA"}, "H-Gln-Glu-Tyr-Phe-NH2": {"test_system": "T30, H-Gln-Glu-Tyr-Phe-NH2", "T30 sequence": "QEYF"}, "H-Gln-Phe-Ala-NH2": {"test_system": "T31, H-Gln-Phe-Ala-NH2", "T31 sequence": "QFA"}, "[5]": {"test_system": "T32, [Gln^5]-substance P(5-11)", "T32 sequence": "QQFFGLM"}},
  "data": [
    {"substance": "QC from papaya latex (Carica papaya glutaminyl cyclase)", "values": [
      {"measurement": "KM", "setting": "H-Gln-Ala-OH", "result": 158, "unit": "µM"},
      {"measurement": "KM (0.05 M Tricine-NaOH, pH 8.0)", "setting": "H-Gln-Ala-OH", "result": 0.137, "unit": "mM"},
      {"measurement": "KM (0.05 M Tricine-NaOH, pH 8.0, 0.5 M KCl)", "setting": "H-Gln-Ala-OH", "result": 0.143, "unit": "mM"},
      {"measurement": "KM", "setting": "H-Gln-Glu-OH", "result": 106, "unit": "µM"},
      {"measurement": "KM (0.05 M Tricine-NaOH, pH 8.0)", "setting": "H-Gln-Glu-OH", "result": 0.098, "unit": "mM"},
      {"measurement": "KM (0.05 M Tricine-NaOH, pH 8.0, 0.5 M KCl)", "setting": "H-Gln-Glu-OH", "result": 0.094, "unit": "mM"},
      {"measurement": "KM", "setting": "H-Gln-Glu-Asp-Leu-NH2", "result": 107, "unit": "µM"},
      {"measurement": "KM (0.05 M Tricine-NaOH, pH 8.0)", "setting": "H-Gln-Glu-Asp-Leu-NH2", "result": 0.109, "unit": "mM"},
      {"measurement": "KM (0.05 M Tricine-NaOH, pH 8.0, 0.5 M KCl)", "setting": "H-Gln-Glu-Asp-Leu-NH2", "result": 0.094, "unit": "mM"},
      {"measurement": "KM", "setting": "H-Gln-Glu-Ala-Phe-NH2", "result": 81, "unit": "µM"},
      {"measurement": "KM", "setting": "H-Gln-Gly-Pro-OH", "result": 333, "unit": "µM"},
      {"measurement": "KM", "setting": "H-Gln-Arg-Gly-Ile-NH2", "result": 123, "unit": "µM"},
      {"measurement": "KM (0.05 M Tricine-NaOH, pH 8.0)", "setting": "H-Gln-Arg-Gly-Ile-NH2", "result": 0.106, "unit": "mM"},
      {"measurement": "KM (0.05 M Tricine-NaOH, pH 8.0, 0.5 M KCl)", "setting": "H-Gln-Arg-Gly-Ile-NH2", "result": 0.065, "unit": "mM"},
      {"measurement": "KM", "setting": "H-Gln-Ala-NH2", "result": 212, "unit": "µM"},
      {"measurement": "KM", "setting": "[1]", "result": 197, "unit": "µM"},
      {"measurement": "KM", "setting": "H-Gln-Tyr-Ala-OH", "result": 63, "unit": "µM"},
      {"measurement": "KM", "setting": "H-Gln-Asn-Gly-Ile-NH2", "result": 153, "unit": "µM"},
      {"measurement": "KM", "setting": "H-Gln-Lys-Arg-Leu-NH2", "result": 118, "unit": "µM"},
      {"measurement": "KM (0.05 M Tricine-NaOH, pH 8.0)", "setting": "H-Gln-Lys-Arg-Leu-NH2", "result": 0.102, "unit": "mM"},
      {"measurement": "KM (0.05 M Tricine-NaOH, pH 8.0, 0.5 M KCl)", "setting": "H-Gln-Lys-Arg-Leu-NH2", "result": 0.053, "unit": "mM"},
      {"measurement": "KM", "setting": "H-Gln-Gln-OH", "result": 44, "unit": "µM"},
      {"measurement": "KM", "setting": "H-Gln-Pro-Tyr-Phe-NH2", "result": 149, "unit": "µM"},
      {"measurement": "KM", "setting": "H-Gln-Ser-Tyr-Phe-NH2", "result": 135, "unit": "µM"},
      {"measurement": "KM", "setting": "[2]", "result": "KM=3.1±0.3 mM"},
      {"measurement": "substrate conversion (kcat/KM column)", "setting": "[Gln^3]-glucagon(3-29)", "result": "*"},
      {"measurement": "KM", "setting": "H-Gln-Glu-Tyr-NH2", "result": 103, "unit": "µM"},
      {"measurement": "KM", "setting": "H-Gln-Glu-Ala-Ala-NH2", "result": 102, "unit": "µM"},
      {"measurement": "KM", "setting": "H-Gln-Arg-Tyr-Phe-NH2", "result": 124, "unit": "µM"},
      {"measurement": "KM", "setting": "[Gln^1]-Neurotensin", "result": 40, "unit": "µM"},
      {"measurement": "KM", "setting": "[3]", "result": 216, "unit": "µM"},
      {"measurement": "KM", "setting": "H-Gln-Gln-Tyr-Phe-NH2", "result": 45, "unit": "µM"},
      {"measurement": "KM", "setting": "[Gln^1]-FPP", "result": 232, "unit": "µM"},
      {"measurement": "KM", "setting": "H-Gln-Ala-Ala-NH2", "result": 164, "unit": "µM"},
      {"measurement": "KM", "setting": "H-Gln-His-Tyr-Phe-NH2", "result": 92, "unit": "µM"},
      {"measurement": "KM", "setting": "[Gln^1]-GnRH", "result": 169, "unit": "µM"},
      {"measurement": "KM", "setting": "H-Gln-Gly-OH", "result": 641, "unit": "µM"},
      {"measurement": "KM", "setting": "[Gln^1]-Gastrin", "result": 34, "unit": "µM"},
      {"measurement": "KM", "setting": "H-Gln-Glu-Tyr-Ala-NH2", "result": 113, "unit": "µM"},
      {"measurement": "KM", "setting": "[4]", "result": "KM-values of 240±14 µM and 133±5 µM for human and papaya QC, respectively"},
      {"measurement": "KM", "setting": "H-Gln-Trp-Ala-NH2", "result": 78, "unit": "µM"},
      {"measurement": "KM (0.05 M Tricine-NaOH, pH 8.0)", "setting": "H-Gln-Trp-Ala-NH2", "result": 0.079, "unit": "mM"},
      {"measurement": "KM (0.05 M Tricine-NaOH, pH 8.0, 0.5 M KCl)", "setting": "H-Gln-Trp-Ala-NH2", "result": 0.072, "unit": "mM"},
      {"measurement": "KM", "setting": "H-Gln-Glu-Tyr-Phe-NH2", "result": 100, "unit": "µM"},
      {"measurement": "KM", "setting": "H-Gln-Phe-Ala-NH2", "result": 111, "unit": "µM"},
      {"measurement": "substrate conversion (kcat/KM column)", "setting": "[5]", "result": "*"}
    ]}
  ]
}
